47 substances from the supplement of paper PMC10598134 can be followed below.

A short description of this data set: collision cross section of modified peptide (TIMS, N2, iRT-aligned); higher = larger / more extended gas-phase ion. An outline of the steps:
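Synthetic peptide pools (~100 fmol/µL in 2% acetonitrile/0.1% formic acid, iRT standard spiked 1:40) were separated on a 120-min nanoflow C18 gradient at 60 °C. They were analysed on a timsTOF Pro/HT (dda-PASEF, nitrogen, ~2.4 mbar) and identified with MaxQuant. 1/K0 was calibrated with three reference ions and aligned run-wise to the median iRT peptide deviation. Collision cross section came from the Mason-Schamp equation, averaging 1–3 technical replicates of the most abundant feature per charge state.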

[1] abbreviates: charge state: 2, modification: Succinyl.
[2] abbreviates: charge state: 3, modification: Succinyl.
The mark [3] stands for this setting: charge state: 2, modification: Trimethyl (K).
The mark [4] stands for this setting: charge state: 3, modification: Trimethyl (K).
Where [5] appears, read: charge state: 2, modification: hydroxyisobutyryl.
The mark [6] stands for this setting: charge state: 3, modification: hydroxyisobutyryl.
Setting [7] is: charge state: 2, modification: Nitro (Y).
Where [8] appears, read: charge state: 2, modification: Phospho (Y).
The mark [9] stands for this setting: charge state: 3, modification: Methyl (R).
[10] abbreviates: charge state: 2, modification: Citrullination (R).
The mark [11] stands for this setting: charge state: 2, modification: Acetyl (K).
Setting [12] is: charge state: 3, modification: Acetyl (K).
The mark [13] stands for this setting: charge state: 2, modification: Butyryl.
Setting [14] is: charge state: 3, modification: Butyryl.
Where [15] appears, read: charge state: 3, modification: Dimethyl (K).
The mark [16] stands for this setting: charge state: 2, modification: Formyl.
[17] abbreviates: charge state: 2, modification: Glutarylation.
Where [18] appears, read: charge state: 3, modification: Glutarylation.
Setting [19] is: charge state: 3, modification: GlyGly (K).
[20] abbreviates: charge state: 2, modification: Methyl (K).
The mark [21] stands for this setting: charge state: 3, modification: Methyl (K).
Setting [22] is: charge state: 2, modification: Hydroxyproline.
Setting [23] is: charge state: 3, modification: Hydroxyproline.

± gives the standard deviation.

FDDTNPEKEEAK [_FDDTNPEK(Succinyl)EEAK_] gave a collision cross section under setting [1] of 397.2 ± 0.56 Å² and a collision cross section under setting [2] of 438.25 ± 3.4 Å².

For “FDDTNPEKEEAK [_FDDTNPEK(Trimethyl (K))EEAK_]”, the collision cross section under setting [3] was found to be 399.27 ± 1.6 Å² and the collision cross section under setting [4] is given as 487.6 ± 1.9 Å².

Regarding “FDDTNPEKEEAK [_FDDTNPEK(hydroxyisobutyryl)EEAK_]”, the collision cross section by setting is: under setting [5], 401.52 ± 0.54 Å²; under setting [6], 443.87 ± 2.2 Å².

Under setting [7], FEGAIYR [_FEGAIY(Nitro (Y))R_] gave a collision cross section of 321.92 ± 0.71 Å².

Substance FEGAIYR [_FEGAIY(Phospho (Y))R_] showed a collision cross section under setting [8] of 333.04 ± 0.65 Å².

Consider “FGDSRGGGGNFGPGPGSNFR [_FGDSR(Citrullination (R))GGGGNFGPGPGSNFR_]”, for which the collision cross section (charge state: 3, modification: Citrullination (R)) was determined as 490.23 ± 0.77 Å².

“FGDSRGGGGNFGPGPGSNFR [_FGDSR(Methyl (R))GGGGNFGPGPGSNFR_]”: the collision cross section under setting [9] turned out to be 500.57 ± 1.4 Å².

The substance “FGRGTGLTQPSQR [_FGR(Citrullination (R))GTGLTQPSQR_]” yielded a collision cross section under setting [10] of 390.81 ± 0.16 Å².

On to “FGRGTGLTQPSQR [_FGR(Methyl (R))GTGLTQPSQR_]”, for which the collision cross section under setting [9] was found to be 470.4 ± 2.6 Å².

As for “FGSRGGPGGGFR [_FGSR(Citrullination (R))GGPGGGFR_]”, the collision cross section under setting [10] was determined as 349.6 ± 0.64 Å².

“FGSRGGPGGGFR [_FGSR(Methyl (R))GGPGGGFR_]” returned a collision cross section under setting [9] of 435.83 ± 3.2 Å².

As to “FGTINIVHPKLGSYTK [_FGTINIVHPK(Acetyl (K))LGSYTK_]”, the collision cross section by setting is: under setting [11], 467.42 ± 3.8 Å²; under setting [12], 551.28 ± 1.6 Å².

With “FGTINIVHPKLGSYTK [_FGTINIVHPK(Butyryl)LGSYTK_]”, the collision cross section worked out at 477.38 ± 1.1 Å² under setting [13] and 553.18 ± 2.9 Å² under setting [14].

“FGTINIVHPKLGSYTK [_FGTINIVHPK(Crotonyl)LGSYTK_]”: where the note is “charge state: 3, modification: Crotonyl”, the collision cross section is listed as 553.88 ± 2 Å².

“FGTINIVHPKLGSYTK [_FGTINIVHPK(Dimethyl (K))LGSYTK_]” showed a collision cross section under setting [15] of 520.37 ± 1.2 Å².

As for “FGTINIVHPKLGSYTK [_FGTINIVHPK(Formyl)LGSYTK_]”, the collision cross section reads like this: under setting [16], 468.22 ± 1.4 Å²; (charge state: 3, modification: Formyl) 546.15 ± 1.5 Å².

“FGTINIVHPKLGSYTK [_FGTINIVHPK(Gluratylation)LGSYTK_]”: the collision cross section is reported as 478.34 Å² under setting [17] and 554.9 ± 0.14 Å² under setting [18].

For the substance “FGTINIVHPKLGSYTK [_FGTINIVHPK(GlyGly (K))LGSYTK_]”, under setting [19], the collision cross section came out at 511.55 ± 1.9 Å².

For the substance “FGTINIVHPKLGSYTK [_FGTINIVHPK(Methyl (K))LGSYTK_]”, the collision cross section by setting is: under setting [20], 470.37 Å²; under setting [21], 541.06 ± 0.45 Å².

For “FGTINIVHPKLGSYTK [_FGTINIVHPK(Succinyl)LGSYTK_]”, the collision cross section is given as 474.47 ± 1.3 Å² under setting [1] and 560.66 ± 0.77 Å² under setting [2].

On to “FGTINIVHPKLGSYTK [_FGTINIVHPK(Trimethyl (K))LGSYTK_]”, for which the collision cross section under setting [4] is 502.05 ± 2.2 Å².

For the substance “FGTINIVHPKLGSYTK [_FGTINIVHPK(hydroxyisobutyryl)LGSYTK_]”, the collision cross section worked out at 477.53 ± 1.6 Å² under setting [5] and 560.61 ± 2.1 Å² under setting [6].

For “FGVEAFSDCLR [_FGVEAFS(HexNAc (ST))DCLR_]”, for the setting “charge state: 2, modification: HexNAc (ST)”, the collision cross section came to 398.33 ± 0.63 Å².

Regarding “FGYVDFESAEDLEK [_FGY(Nitro (Y))VDFESAEDLEK_]”, under setting [7], the collision cross section stood at 424.66 Å².

Turning to FHYQDQEFLK [_FHY(Nitro (Y))QDQEFLK_], the collision cross section under setting [7] was determined as 402.47 ± 0.18 Å² and the collision cross section (charge state: 3, modification: Nitro (Y)) is 452.15 ± 1.1 Å².

Take FHYQDQEFLK [_FHY(Phospho (Y))QDQEFLK_]: the collision cross section under setting [8] is 397.81 ± 0.64 Å² and the collision cross section (charge state: 3, modification: Phospho (Y)) stood at 447.23 ± 0.12 Å².

For the setting “charge state: 3, modification: HexNAc (ST)”, “FIHQQPQSSSPVYGSSAK [_FIHQQPQSSSPVYGS(HexNAc (ST))SAK_]” returned a collision cross section of 528.58 ± 0.18 Å².

Take “FLQEFYQDDELGK [_FLQEFY(Nitro (Y))QDDELGK_]”: the collision cross section under setting [7] came to 428.07 ± 1.5 Å².

“FLQEFYQDDELGKK [_FLQEFYQDDELGK(Acetyl (K))K_]”: the collision cross section reads like this: under setting [11], 444.35 ± 1.6 Å²; under setting [12], 501.5 ± 0.084 Å².

Take “FLQEFYQDDELGKK [_FLQEFYQDDELGK(Butyryl)K_]”: the collision cross section worked out at 451.46 ± 0.51 Å² under setting [13] and 506.1 Å² under setting [14].

As to “FLQEFYQDDELGKK [_FLQEFYQDDELGK(Crotonyl)K_]”, the collision cross section (charge state: 2, modification: Crotonyl) is listed as 450.33 ± 0.0083 Å².

For “FLQEFYQDDELGKK [_FLQEFYQDDELGK(Dimethyl (K))K_]”, the collision cross section came out at 456.43 ± 1.8 Å² (charge state: 2, modification: Dimethyl (K)) and 499.62 ± 0.75 Å² under setting [15].

“FLQEFYQDDELGKK [_FLQEFYQDDELGK(Formyl)K_]” showed a collision cross section under setting [16] of 444.03 ± 0.77 Å².

As for “FLQEFYQDDELGKK [_FLQEFYQDDELGK(Gluratylation)K_]”, the collision cross section runs as follows: under setting [17], 453.64 ± 1.5 Å²; under setting [18], 517.26 Å².

For the substance “FLQEFYQDDELGKK [_FLQEFYQDDELGK(GlyGly (K))K_]”, the collision cross section by setting is: (charge state: 2, modification: GlyGly (K)) 460.97 ± 1.6 Å²; under setting [19], 512.67 ± 1.3 Å².

Regarding “FLQEFYQDDELGKK [_FLQEFYQDDELGK(Malonyl)K_]”, the collision cross section (charge state: 2, modification: Malonyl) is given as 451.48 ± 0.99 Å².

Substance “FLQEFYQDDELGKK [_FLQEFYQDDELGK(Methyl (K))K_]” returned a collision cross section under setting [20] of 445.9 ± 2.4 Å² and a collision cross section under setting [21] of 499.81 ± 3 Å².

Under setting [1], “FLQEFYQDDELGKK [_FLQEFYQDDELGK(Succinyl)K_]” gave a collision cross section of 450.32 ± 0.96 Å².

For “FLQEFYQDDELGKK [_FLQEFYQDDELGK(Trimethyl (K))K_]”, the collision cross section under setting [3] is listed as 464.1 ± 0.55 Å² and the collision cross section under setting [4] is given as 508.12 ± 1.8 Å².

With “FLQEFYQDDELGKK [_FLQEFYQDDELGK(hydroxyisobutyryl)K_]”, the collision cross section runs as follows: under setting [5], 452.81 ± 0.81 Å²; under setting [6], 512.84 ± 1.6 Å².

Under setting [7], “FNALFAQGNYSEAAK [_FNALFAQGNY(Nitro (Y))SEAAK_]” showed a collision cross section of 433.45 ± 0.55 Å².

Consider “FNALFAQGNYSEAAK [_FNALFAQGNY(Phospho (Y))SEAAK_]”, for which the collision cross section under setting [8] is listed as 426.34 ± 0.64 Å².

“FPGVGVLPGVPTGAGVK [_FPGVGVLP(Hydroxyproline)GVPTGAGVK_]” gave a collision cross section under setting [22] of 432.68 ± 8.7 Å² and a collision cross section under setting [23] of 504.05 ± 5.9 Å².

The substance “FPGVGVLPGVPTGAGVKPK [_FPGVGVLPGVPTGAGVKP(Hydroxyproline)K_]” came in with a collision cross section under setting [22] of 440.08 ± 1.4 Å² and a collision cross section under setting [23] of 556.97 ± 11 Å².

With FRSGNYR [_FR(Citrullination (R))SGNYR_], the collision cross section under setting [10] was determined as 327.94 ± 2.8 Å².

As for FRSGNYR [_FR(Methyl (R))SGNYR_], the collision cross section is, setting by setting: (charge state: 2, modification: Methyl (R)) 333.09 ± 1 Å²; under setting [9], 399.51 ± 0.82 Å².

For “FSAYIKNSNPALNDNLEK [_FSAYIK(Acetyl (K))NSNPALNDNLEK_]”, the collision cross section amounted to 479.82 ± 3 Å² under setting [11] and 541.74 Å² under setting [12].
